{"source": "patent US20240270874A1", "about": "(JIANGSU HENGRUI PHARMACEUTICALS, published 2024)"}
{"biological_target": "T1, human KLB on CHOK1-hKLB cells (human, UniProt Q86Z14 1-1044)", "T1 construct": "whole, on cells; also called human KLB antigen; β-Klotho", "T1 sequence (looked up)": "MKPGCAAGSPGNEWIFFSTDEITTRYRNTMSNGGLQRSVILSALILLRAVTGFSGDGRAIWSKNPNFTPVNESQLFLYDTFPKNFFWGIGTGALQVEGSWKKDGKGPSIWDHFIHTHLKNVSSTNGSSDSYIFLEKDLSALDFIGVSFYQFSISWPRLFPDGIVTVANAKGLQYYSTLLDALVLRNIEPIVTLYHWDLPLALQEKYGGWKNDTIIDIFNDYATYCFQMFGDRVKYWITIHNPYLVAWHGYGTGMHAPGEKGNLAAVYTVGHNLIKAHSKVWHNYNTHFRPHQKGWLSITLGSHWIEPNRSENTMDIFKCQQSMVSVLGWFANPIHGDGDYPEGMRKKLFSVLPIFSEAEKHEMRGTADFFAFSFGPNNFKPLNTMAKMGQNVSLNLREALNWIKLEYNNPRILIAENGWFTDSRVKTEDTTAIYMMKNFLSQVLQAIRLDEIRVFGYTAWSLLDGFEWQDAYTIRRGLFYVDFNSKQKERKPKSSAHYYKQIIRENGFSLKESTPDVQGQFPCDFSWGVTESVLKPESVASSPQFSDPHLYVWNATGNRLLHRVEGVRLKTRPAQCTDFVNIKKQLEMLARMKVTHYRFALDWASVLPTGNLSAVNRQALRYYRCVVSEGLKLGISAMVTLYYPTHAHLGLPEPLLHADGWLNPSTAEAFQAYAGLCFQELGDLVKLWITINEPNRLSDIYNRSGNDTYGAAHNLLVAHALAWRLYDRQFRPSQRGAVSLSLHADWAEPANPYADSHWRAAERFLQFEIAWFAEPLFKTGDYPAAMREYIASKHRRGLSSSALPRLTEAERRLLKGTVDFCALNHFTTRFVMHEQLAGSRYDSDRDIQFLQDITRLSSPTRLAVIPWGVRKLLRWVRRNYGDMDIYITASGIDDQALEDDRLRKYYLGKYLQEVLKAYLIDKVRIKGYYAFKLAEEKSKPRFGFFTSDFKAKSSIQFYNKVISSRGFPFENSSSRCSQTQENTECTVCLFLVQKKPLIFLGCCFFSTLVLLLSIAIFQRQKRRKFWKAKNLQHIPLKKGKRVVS", "experiment": "flow cytometry on CHOK1-hKLB cells", "from_the_text": "The above heavy chain variable regions were fused to the heavy chain constant region (set forth in SEQ ID NO: 22) and the light chain variable regions were fused to the light chain constant region (set forth in SEQ ID NO: 23) to construct anti-KLB antibodies, and the binding activity of the obtained antibodies for CHOK1-hKLB was detected (see Test Example 2 of the present disclosure for the experimental method).\nThe binding ability of the antibodies for CHOK1 cell strains CHOK1-hKLB and CHOK1-cynoKLB overexpressing human KLB and monkey KLB (see Example 1 for specific preparation procedure), respectively, was detected by flow cytometry. The specific procedure was as follows: the above cells were cultured in 10% FBS-containing IMDM medium and incubated in an incubator at 37° C. and 5% CO₂ for 2 days. The cells were then added to a cell plate at 1×10⁵ cells per well, centrifuged at 300 g for 5 min, and then washed once with 1% BSA. The antibody diluted in gradient was added to the cell plate at 100 μL per well, and the mixture was incubated at 4° C. for 1 h and washed once with 1% BSA. The diluted (1:400) APC-goat anti-human IgG Fc fluorescent secondary antibody was added at 100 μL per well, and the resulting mixture was incubated at 4° C. for 1 h. The plate was washed three times with 1% BSA, PBS was added at 100 μL per well, and the plate was read.", "units": {"EC50": "nM"}}
{"binder": "hAb18-15 (antibody, human IgG1, kappa, L234A L235A, V domains shown, humanized mAb-18: hAb18VH1 + hAb18VL2-9; human IgG1 (L234A, L235A) / kappa constant regions) VH: EVQLVQSGAEVKKPGASVKVSCKASGYTFTDYAMHWVRQAPGQRLEWMGVISTYSGTTNYNQNFKGRVTITVDKSASTAYMELSSLRSEDTAVYYCARSGPLDYWGQGTTVTVSS VL: ENVLTQSPDFQSVTPKEKVTITCRVSSSVSSSYLHWYQQKPDQSPKLWIYSTSNLASGVPSRFSGSGSGTDYTLTINSLEAEDAATYYCQQYSGYPLTFGQGTKLEIKR", "EC50": 1.9}
{"binder": "hAb18-16 (antibody, human IgG1, kappa, L234A L235A, V domains shown, humanized mAb-18: hAb18VH1 + hAb18VL2-10; human IgG1 (L234A, L235A) / kappa constant regions) VH: EVQLVQSGAEVKKPGASVKVSCKASGYTFTDYAMHWVRQAPGQRLEWMGVISTYSGTTNYNQNFKGRVTITVDKSASTAYMELSSLRSEDTAVYYCARSGPLDYWGQGTTVTVSS VL: ENVLTQSPDFQSVTPKEKVTITCRASSSVSTSYLHWYQQKPDQSPKLWIYSTSNLASGVPSRFSGSGSGTDYTLTINSLEAEDAATYYCQQYSGYPLTFGQGTKLEIKR", "EC50": 2.4}
{"binder": "hAb18-17 (antibody, human IgG1, kappa, L234A L235A, V domains shown, humanized mAb-18: hAb18VH1 + hAb18VL2-11; human IgG1 (L234A, L235A) / kappa constant regions) VH: EVQLVQSGAEVKKPGASVKVSCKASGYTFTDYAMHWVRQAPGQRLEWMGVISTYSGTTNYNQNFKGRVTITVDKSASTAYMELSSLRSEDTAVYYCARSGPLDYWGQGTTVTVSS VL: ENVLTQSPDFQSVTPKEKVTITCRASSSVTSSYLHWYQQKPDQSPKLWIYSTSNLASGVPSRFSGSGSGTDYTLTINSLEAEDAATYYCQQYSGYPLTFGQGTKLEIKR", "EC50": 1.8}
{"binder": "hAb18-18 (antibody, human IgG1, kappa, L234A L235A, V domains shown, humanized mAb-18: hAb18VH1 + hAb18VL2-12; human IgG1 (L234A, L235A) / kappa constant regions) VH: EVQLVQSGAEVKKPGASVKVSCKASGYTFTDYAMHWVRQAPGQRLEWMGVISTYSGTTNYNQNFKGRVTITVDKSASTAYMELSSLRSEDTAVYYCARSGPLDYWGQGTTVTVSS VL: ENVLTQSPDFQSVTPKEKVTITCRASSSLSSSYLHWYQQKPDQSPKLWIYSTSNLASGVPSRFSGSGSGTDYTLTINSLEAEDAATYYCQQYSGYPLTFGQGTKLEIKR", "EC50": 1.7}
{"binder": "hAb18-19 (antibody, human IgG1, kappa, L234A L235A, V domains shown, humanized mAb-18: hAb18VH1 + hAb18VL2-13; human IgG1 (L234A, L235A) / kappa constant regions) VH: EVQLVQSGAEVKKPGASVKVSCKASGYTFTDYAMHWVRQAPGQRLEWMGVISTYSGTTNYNQNFKGRVTITVDKSASTAYMELSSLRSEDTAVYYCARSGPLDYWGQGTTVTVSS VL: ENVLTQSPDFQSVTPKEKVTITCRASSNVSSSYLHWYQQKPDQSPKLWIYSTSNLASGVPSRFSGSGSGTDYTLTINSLEAEDAATYYCQQYSGYPLTFGQGTKLEIKR", "EC50": 4.1}
{"binder": "mAb99-hIgG1 (antibody, V domains shown, chimeric: murine mAb-99 variable regions on human IgG1 (L234A, L235A) / kappa constant regions; also called chimeric antibody of mAb99) VH: EVQLQQSGAELVRPGSSVKMSCKTSGYTFTNYGINWVKQRPRQGLEWIGYIYIGNGDIEYNAKFKGKATLTSDTSSSTAYMQLSSLTSEDSAIYFCARGRGLGHFDVWGTGTTVTVSS VL: DVQITQSPSYLAASPGETITINCRASKSISKFLAWFQEKPGKTNKLLIYSGSTLQSGIPSRFSGSGSGTDFTLTISGLEPEDFAMYYCQQHNEYPWTFGGGTKLEIKR", "EC50": 0.97}
{"binder": "mAb18-hIgG1 (antibody, V domains shown, chimeric: murine mAb-18 variable regions on human IgG1 (L234A, L235A) / kappa constant regions; also called chimeric antibody of mAb18) VH: QVQLQQSGPELVRPGVSVKISCKGSGYTFTDYAMHWVKQTHAKSLEWIGVISTYSGTTNYNQNFKGKATVTVDKSSSTAYMELARLTSEDSAIYYCARSGPLDYWGQGTSLTVSS VL: ENVLTQSPAIMSASPGEKVTMTCRASSSVSSSYLHWYQQKSGASPKLWIYSTSNLASGVPERFSGSGSGTSYSLTISSVEAEDAATYYCQQYSGYPLTFGSGTKLEIKR", "EC50": 2.16}
{"biological_target": "T2, human FGFR1c on cells (human, UniProt P11362 22-822)", "T2 construct": "whole, on cells; also called hFGFR1c; CHOK1-hFGFR1c", "T2 sequence (P11362 22-822)": "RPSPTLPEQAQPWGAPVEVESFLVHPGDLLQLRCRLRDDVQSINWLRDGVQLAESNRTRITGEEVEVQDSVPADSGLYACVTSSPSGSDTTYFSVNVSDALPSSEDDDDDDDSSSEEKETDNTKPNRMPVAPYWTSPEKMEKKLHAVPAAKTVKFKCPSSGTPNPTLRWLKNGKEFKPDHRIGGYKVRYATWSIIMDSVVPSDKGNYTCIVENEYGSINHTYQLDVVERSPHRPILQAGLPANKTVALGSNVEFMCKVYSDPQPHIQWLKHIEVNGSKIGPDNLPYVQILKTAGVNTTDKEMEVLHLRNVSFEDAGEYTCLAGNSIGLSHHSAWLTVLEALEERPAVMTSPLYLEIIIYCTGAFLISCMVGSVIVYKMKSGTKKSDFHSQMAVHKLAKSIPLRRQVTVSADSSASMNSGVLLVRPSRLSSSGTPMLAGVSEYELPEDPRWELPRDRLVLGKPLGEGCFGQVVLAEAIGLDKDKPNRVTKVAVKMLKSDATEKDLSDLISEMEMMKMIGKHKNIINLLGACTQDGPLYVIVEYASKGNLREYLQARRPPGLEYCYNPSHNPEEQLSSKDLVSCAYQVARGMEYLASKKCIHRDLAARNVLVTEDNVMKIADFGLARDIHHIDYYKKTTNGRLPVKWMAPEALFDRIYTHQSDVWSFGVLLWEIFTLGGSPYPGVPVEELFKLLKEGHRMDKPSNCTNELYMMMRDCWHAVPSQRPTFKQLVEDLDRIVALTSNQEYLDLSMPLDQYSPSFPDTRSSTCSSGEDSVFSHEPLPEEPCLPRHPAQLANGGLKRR", "experiment": "hybridoma clone screening on recombinant cells"}
{"binder": "mAb-99 (antibody, V domains shown, murine hybridoma antibody; also called murine antibody mAb-99) VH: EVQLQQSGAELVRPGSSVKMSCKTSGYTFTNYGINWVKQRPRQGLEWIGYIYIGNGDIEYNAKFKGKATLTSDTSSSTAYMQLSSLTSEDSAIYFCARGRGLGHFDVWGTGTTVTVSS VL: DVQITQSPSYLAASPGETITINCRASKSISKFLAWFQEKPGKTNKLLIYSGSTLQSGIPSRFSGSGSGTDFTLTISGLEPEDFAMYYCQQHNEYPWTFGGGTKLEIK", "binding result": "no binding"}
{"binder": "mAb-18 (antibody, V domains shown, murine hybridoma antibody; also called murine antibody mAb-18) VH: QVQLQQSGPELVRPGVSVKISCKGSGYTFTDYAMHWVKQTHAKSLEWIGVISTYSGTTNYNQNFKGKATVTVDKSSSTAYMELARLTSEDSAIYYCARSGPLDYWGQGTSLTVSS VL: ENVLTQSPAIMSASPGEKVTMTCRASSSVSSSYLHWYQQKSGASPKLWIYSTSNLASGVPERFSGSGSGTSYSLTISSVEAEDAATYYCQQYSGYPLTFGSGTKLEIK", "binding result": "no binding"}
